Results taken from paper PMC8809517, “Cofactor-independent RNA editing by a synthetic S-type PPR protein”.
Positions count from the first letter of the chain named.

How the values were obtained:
Test in all cases: high-throughput RNA pulldown from lysate on Ni-NTA beads; HRP: 50 mM Tris pH 8, 150 mM NaCl, 1 mM beta-mercaptoethanol, 50 ug/ml BSA, 3 ug/ml yeast RNA, 0.5% heparin; ITC and FP: Tris pH 8, 200 mM KCl, 5% glycerol; MST: 50 mM Tris pH 8, 200 mM NaCl, 1 mM DTT, BSA, heparin, 0.05% Tween 20
Conditions in all cases: tags: N-terminal His-eGFP
[1] = target: T1, GFP-9S library array, motif 4 ND N98G;D124G (synthetic construct, N98G;D124G)
T1 chain: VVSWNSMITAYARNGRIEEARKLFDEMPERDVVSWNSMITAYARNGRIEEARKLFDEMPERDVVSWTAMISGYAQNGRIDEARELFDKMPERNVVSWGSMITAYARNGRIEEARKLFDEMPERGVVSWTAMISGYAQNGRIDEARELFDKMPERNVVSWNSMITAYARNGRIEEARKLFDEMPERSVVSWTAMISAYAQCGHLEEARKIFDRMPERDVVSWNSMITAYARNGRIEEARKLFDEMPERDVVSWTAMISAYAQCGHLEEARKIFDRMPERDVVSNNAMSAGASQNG

[2] = target: T2, GFP-9S library array, motif 4 ND N98D;D124S (synthetic construct, N98D;D124S)
T2 chain: T1 chain with G98D, G124S

[3] = target: T3, GFP-9S library array, motif 4 ND N98C (synthetic construct, N98C)
T3 chain: T1 chain with G98C, G124D

[4] = target: T4, GFP-9S library array, motif 4 ND N98G;D124S (synthetic construct, N98G;D124S)
T4 chain: T1 chain with G124S

[5] = target: T5, GFP-9S library array, motif 4 ND N98I;D124A (synthetic construct, N98I;D124A)
T5 chain: T1 chain with G98I, G124A

**Q.** For AUUACACGUGA (ssRNA) [Cy5-rpoA], which Kd ([1]; label: 5' Cy5) is on record?
**A.** The Kd was 92 nM.

**Q.** What about the Kd ([2]; label: 5' Cy5) of the same binder?
**A.** Its Kd is 401 nM.

**Q.** And the Kd ([3]; label: 5' Cy5)?
**A.** The Kd was 491 nM.

**Q.** And the Kd ([4]; label: 5' Cy5)?
**A.** Its Kd is 629 nM.

**Q.** What about the Kd ([5]; label: 5' Cy5) of the same binder?
**A.** The Kd was 213 nM.

**Q.** How did the Kd ([1]; label: 5' Cy5) turn out when AUUAGACGUGA (ssRNA) [Cy5-rpoA-G] was run?
**A.** The Kd was 95.2 nM.

**Q.** And the Kd ([2]; label: 5' Cy5)?
**A.** The Kd was 260 nM.

**Q.** What about the Kd ([3]; label: 5' Cy5) of the same binder?
**A.** Its Kd is 620 nM.

**Q.** And the Kd ([4]; label: 5' Cy5)?
**A.** Its Kd is 549 nM.

**Q.** And the Kd ([5]; label: 5' Cy5)?
**A.** The Kd was 259 nM.

**Q.** AUUAAACGUGA (ssRNA) [IR-rpoA-A] was tested. Which Kd ([1]; label: 5' IRDye 800CW) did it give?
**A.** Its Kd is 49.9 nM.

**Q.** What about the Kd ([2]; label: 5' IRDye 800CW) of the same binder?
**A.** The Kd was 759 nM.

**Q.** What about the Kd ([3]; label: 5' IRDye 800CW) of the same binder?
**A.** Its Kd is 1290 nM.

**Q.** What about the Kd ([4]; label: 5' IRDye 800CW) of the same binder?
**A.** The Kd was 564 nM.

**Q.** And the Kd ([5]; label: 5' IRDye 800CW)?
**A.** The Kd was 620 nM.

**Q.** For AUUAUACGUGA (ssRNA) [IR-rpoA-U], which Kd ([1]; label: 5' IRDye 800CW) is on record?
**A.** The Kd was 95.3 nM.

**Q.** And the Kd ([2]; label: 5' IRDye 800CW)?
**A.** Its Kd is 470 nM.

**Q.** And the Kd ([3]; label: 5' IRDye 800CW)?
**A.** Its Kd is 651 nM.

**Q.** What about the Kd ([4]; label: 5' IRDye 800CW) of the same binder?
**A.** Its Kd is 749 nM.

**Q.** What about the Kd ([5]; label: 5' IRDye 800CW) of the same binder?
**A.** Its Kd is 757 nM.
